Results from PMC8890709.

Columns and labels:
[1] = target: GmALMT12/QUAC1 cytoplasmic helical domain (CHD, residues 221 to 537), wild type (Glycine max (soybean)); assay: SEC
[2] = target: GmALMT12/QUAC1 (aluminum-activated malate transporter 12 / quick anion channel 1 from Glycine max) (Glycine max (soybean)); assay: cryo-EM structure

stoichiometry N [1]	stoichiometry N [2]	Substance
2	–	GmALMT12/QUAC1 cytoplasmic helical domain (CHD, residues 221 to 537), wild type (domain or fragment)
–	2	GmALMT12/QUAC1 (aluminum-activated malate transporter 12 / quick anion channel 1 from Glycine max) (natural protein)
